B1: Inositol phosphate phosphatase SopB (Salmonella typhimurium), O30916 (parent)
chain: MQIQSFYHSASLKTQEAFKSLQKTLYNGMQILSGQGKAPAKAPDARPEIIVLREPGATWGNYLQHQKASNHSLHNLYNLQRDLLTVAATVLGKQDPVLTSMANQMELAKVKADRPATKQEEAAAKALKKNLIELIAARTQQQDGLPAKEAHRFAAVAFRDAQVKQLNNQPWQTIKNTLTHNGHHYTNTQLPAAEMKIGAKDIFPSAYEGKGVCSWDTKNIHHANNLWMSTVSVHEDGKDKTLFCGIRHGVLSPYHEKDPLLRHVGAENKAKEVLTAALFSKPELLNKALAGEAVSLKLVSVGLLTASNIFGKEGTMVEDQMRAWQSLTQPGKMIHLKIRNKDGDLQTVKIKPDVAAFNVGVNELALKLGFGLKASDSYNAEALHQLLGNDLRPEARPGGWVGEWLAQYPDNYEVVNTLARQIKDIWKNNQHHKDGGEPYKLAQRLAMLAHEIDAVPAWNCKSGKDRTGMMDSEIKREIISLHQTHMLSAPGSLPDSGGQKIFQKVLLNSGNLEIQKQNTGGAGNKVMKNLSPEVLNLSYQKRVGDENIWQSVKGISSLITS

Variants of: B1
Settings: with cdc42_human CDC42, P60953
cdc42_human CDC42, P60953, sequence (P60953 whole entry, looked up): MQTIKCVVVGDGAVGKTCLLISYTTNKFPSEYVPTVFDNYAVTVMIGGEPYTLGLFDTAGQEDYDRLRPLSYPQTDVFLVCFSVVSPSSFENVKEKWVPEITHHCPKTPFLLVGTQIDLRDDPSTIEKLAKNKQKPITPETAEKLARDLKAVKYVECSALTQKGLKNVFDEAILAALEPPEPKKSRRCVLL

Variant	effect of a mutation on the interaction
L73P	decreasing interaction
L63P	decreasing interaction
L76P	decreasing interaction
L84P	decreasing interaction

Variants of: B1
Settings: with cdc42_human CDC42, P60953
Remark: another data set of the same source

Variant	effect of a mutation on the interaction
L84P;R466A	decreasing interaction
L76P;R466A	decreasing interaction
L73P;R466A	decreasing interaction
L52P	decreasing interaction
L63P;R466A	decreasing interaction
